Measured values from paper PMC3154878.

Experiment: cycloheximide chase, Western blot, Hepa1A
Details: glycan lost; control: wild type

B1: ERManI: ERManIO-def (protein)
parent chain: MAACEGRRSGALGSSQSDFLTPPVGGAPWAVATTVVMYPPPPPPPHRDFISVTLSFGENYDNSKSWRRRSCWRKWKQLSRLQRNMILFLLAFLLFCGLLFYINLADHWKALAFRLEEEQKMRPEIAGLKPANPPVLPAPQKADTDPENLPEISSQKTQRHIQRGPPHLQIRPPSQDLKDGTQEEATKRQEAPVDPRPEGDPQRTVISWRGAVIEPEQGTELPSRRAEVPTKPPLPPARTQGTPVHLNYRQKGVIDVFLHAWKGYRKFAWGHDELKPVSRSFSEWFGLGLTLIDALDTMWILGLRKEFEEARKWVSKKLHFEKDVDVNLFESTIRILGGLLSAYHLSGDSLFLRKAEDFGNRLMPAFRTPSKIPYSDVNIGTGVAHPPRWTSDSTVAEVTSIQLEFRELSRLTGDKKFQEAVEKVTQHIHGLSGKKDGLVPMFINTHSGLFTHLGVFTLGARADSYYEYLLKQWIQGGKQETQLLEDYVEAIEGVRTHLLRHSEPSKLTFVGELAHGRFSAKMDHLVCFLPGTLALGVYHGLPASHMELAQELMETCYQMNRQMETGLSPEIVHFNLYPQPGRRDVEVKPADRHNLLRPETVESLFYLYRVTGDRKYQDWGWEILQSFSRFTRVPSGGYSSINNVQDPQKPEPRDKMESFFLGETLKYLFLLFSDDPNLLSLDAYVFNTEAHPLPIWTPA
degradation_or_half_life: no change
